The record followed here is patent publication US20190040131A1 (published 2019).

The term Kd denotes the equilibrium constant for the complex coming apart. A higher Kd goes with a looser complex. Usually koff stands for the rate constant with which the complex falls apart. What is called kon is a measure of how fast the partners come together.

First the molecules themselves.
B1: AB-14.1 (antibody, V domains shown)
VH: QVQLVQSGAEVKKPGASVKVSCKASGATFTDYNFHWVRQAPGQGLEWIGFIYPSNGITGYAQDFQGRVTMTVDTSTSTVYMELSSLRSEDTAVYYCARSDVDYFDYWGQGTLVTVSS
VL: DIQMTQSPSSLSASVGDRVTITCRASQSVSTSTYSYMHWYQQKPGKAPKLLIKYASNLESGVPSRFSGSGSGTDFTLTISSLQPEDFATYYCQHSWEIPLTFGQGTKLEIK
B2: AB-63.15 (antibody, V domains shown)
VH: QVQLVQSGAEVKKPGASVKVSCKASGYTFTDYNYHWVRQAPGQGLEWIGFIYPSNGITGYAQKFQGRVTMTVDTSTSTVYMELSSLRSEDTAVYYCARSDVDYFDLWGQGTLVTVSS
VL: DIVLTQSPDSLAVSLGERATINCRASQDVSTSTYSYMHWYQQKPGQPPKLLIKYASNVESGVPDRFSGSGSGTDFTLTISSLQAEDVAVYYCQHSWEIPLTFGQGTKLEIE
B3: AB-63.12 (antibody, V domains shown)
VH: QVQLVQSGAEVKKPGASVKVSCKASGYTFTDYNFHWVRQAPGQGLEWIGFIYPSNGITGYAQKFTGRVTMTVDTSTSTVYMELSSLRSEDTAVYYCARSTVDYFDDWGQGTLVTVSS
VL: DIVLTQSPDSLAVSLGERATINCRASQDVSTSTYSYMHWYQQKPGQPPKLLIKYASNVESGVPDRFSGSGSGTDFTLTISSLQAEDVAVYYCQHSWAIPLTFGQGTKLEIK
B4: AB-63.10 (antibody, V domains shown)
VH: QVQLVQSGAEVKKPGASVKVSCKASGYTETDYNLHWVRQAPGQGLEWIGFIYPSNGITGYAQKFQGRVTMTVDTSTSTVYMELSSLRSEDTAVYYCARSDVDYFDYWGQGTLVTVSS
VL: DIVLTQSPDSLAVSLGERATINCRASQDVSTSTYSYMHWYQQKPGQPPKLLIKYASNLESGVPDRFSGSGSGTDFTLTISSLQAEDVAVYYCQHSWELPLTFGQGTKLEIK
B5: AB-63.7 (antibody, V domains shown)
VH: QVQLVQSGAEVKKPGASVKVSCKASGYTFTDYNLHWVRQAPGQGLEWIGFIYPSNGITGYAQKFQGRVTMTVDTSTSTVYMELSSLRSEDTAVYYCARSTVDYFDYWGQGTLVTVSS
VL: DIVLTQSPDSLAVSLGERATINCRASQDVSTSTYSYMHWYQQKPGQPPKLLIKYAFNLESGVPDRFSGSGSGTDFTLTISSLQAEDVAVYYCQHSWEIPLEFGQGTKLEIK
B6: AB-63.4 (antibody, V domains shown)
VH: QVQLVQSGAEVKKPGASVKVSCKASGYTFTDYNYHWVRQAPGQGLEWIGFIYPSNGITGYAQKFQGRVTMTVDTSTSTVYMELSSLRSEDTAVYYCARSTVDYFDYWGQGTLVTVSS
VL: DIVLTQSPDSLAVSLGERATINCRASQSVSTSTYSYMHWYQQKPGQPPKLLIKYASNLESGVPDRFSGSGSGTDFTLTISSLQAEDVAVYYCQHSWEIPLTFGQGTKLEIK
B7: AB-63.6 (antibody, V domains shown)
VH: QVQLVQSGAEVKKPGASVKVSCKASGYTFTDYNLHWVRQAPGQGLEWIGFIYPSNGITGYAQKFQGRVTMTVDTSTSTVYMELSSLRSEDTAVYYCARSTVDYFDYWGQGTLVTVSS
VL: DIVLTQSPDSLAVSLGERATINCRASQDVSTSTYSYMHWYQQKPGQPPKLLIKYASNLESGVPDRFSGSGSGTDFTLTISSLQAEDVAVYYCQHSWEIPLTFGQGTKLEIK
B8: AB-63.9 (antibody, V domains shown)
VH: QVQLVQSGAEVKKPGASVKVSCKASGYAFTDYNLHWVRQAPGQGLEWIGFIYPSNGITGYAQKFQGRVTMTVDTSTSTVYMELSSLRSEDTAVYYCARSDVDYFDYWGQGTLVTVSS
VL: DIVLTQSPDSLAVSLGERATINCRASQDVSTSTYSYMHWYQQKPGQPPKLLIKYASYLESGVPDRFSGSGSGTDFTLTISSLQAEDVAVYYCEHSWEIPLTFGQGTKLEIK
B9: AB-63.13 (antibody, V domains shown)
VH: QVQLVQSGAEVKKPGASVKVSCKASGYTFTDYNLHWVRQAPGQGLEWIGFIYPSNGIRGYAQKFQGRVTMTVDTSTSTVYMELSSLRSEDTAVYYCARSDVDYFDYWGQGTLVTVSS
VL: DIVLTQSPDSLAVSLGERATINCRASQSVSTSTYSYMHWYQQKPGQPPKLLIKYASNLESGVPDRFSGSGSGTDFTLTISSLQAEDVAVYYCQHSEEIPLTFGQGTKLEIK
B10: AB-63.11 (antibody, V domains shown)
VH: QVQLVQSGAEVKKPGASVKVSCKASGYTFTDYNFHWVRQAPGQGLEWIGFIYPANGITGYAQKDQGRVTMTVDTSTSTVYMELSSLRSEDTAVYYCARSDVDYFDYWGQGTLVTVSS
VL: DIVLTQSPDSLAVSLGERATINCRASQDVSTSTYSYMHWYQQKPGQPPKLLIKYASNLESGVPDRFSGSGSGTDFTLTISSLQAEDVAVYYCQHSWEIPLTFGQGTKLEIK
B11: AB-63.14 (antibody, V domains shown)
VH: QVQLVQSGAEVKKPGSSVKVSCKASGYTFTDYNLHWVRQAPGQGLEWIGFIYPSNGITGYAQKFQGRVTMTVDTSTSTVYMELSSLRSEDTAVYYCARSDVDYFDYWGQGTLVTVSS
VL: DIVLTQSPDSLAVSLGERATIDCKASQDVSTSTYSYMHWYQQKPGQPPKLLIKYASNLESGVPDRFSGSGSGTDFTLTISSLQAEDVAVYYCQHSWEIPLTFGQGTKLEIK
B12: AB-63.18 (antibody, V domains shown)
VH: QVQLVQSGAEVKKPGSSVKVSCKASGYTHTDYNLHWVRQAPGQGLEWIGFIYPSNGITGYAQKFQGRVTMTVDTSTSTVYMELSSLRSEDTAVYYCARSDVDYFDYWGQGTLVTVSS
VL: DIVLTQSPDSLAVSLGERATINCRASQSVSTSTYSYMHWYQQKPGQPPKLLIKYESNLESGVPDRFSGSGSGTDFTLTISSLQAEDVAVYYCQHSWEIPLTFGQGTKLEIK
B13: AB-63.5 (antibody, V domains shown)
VH: QVQLVQSGAEVKKPGASVKVSCKASGYTFTDYNNHWVRQAPGQGLEWIGFIYPSNGITGYAQKFQGRVTMTVDTSTSTVYMELSSLRSEDTAVYYCARSDVDYFDYWGQGTLVTVSS
VL: DIVLTQSPDSLAVSLGERATINCRASQSVSTSTYSYMHWYQQKPGQPPKLLIKYASNLESGVPDRFSGSGSGTDFTLTISSLQAEDVAVYYCQHSWEIPLTFGQGTKLEIK
B14: AB-63.8 (antibody, V domains shown)
VH: QVQLVQSGAEVKKPGSSVKVSCKASGVTFTDYNYHWVRQAPGQGLEWIGFIYPSNGITGYAQKFQDRVTMTVDTSTSTVYMELSSLRSEDTAVYYCARSTVDYFDYWGQGTLVTVSS
VL: DIVLTQSPDSLAVSLGERATINCRASQDVSTSTYSYMHWYQQKPGQPPKLLIKYASNLESGVPDRFSGSGSGTDFTLTISSLQAEDVAVYYCQHSWEIPLTFGQGTKLEIK

The target in the first experiment is T1, human CD33 (human, UniProt P20138 18-259, limits assumed).
T1 construct: Human CD33 immobilized on the BLI sensor tip or the BIAcore C1 chip; also called Siglec-3
T1 sequence (P20138 18-259 limits assumed): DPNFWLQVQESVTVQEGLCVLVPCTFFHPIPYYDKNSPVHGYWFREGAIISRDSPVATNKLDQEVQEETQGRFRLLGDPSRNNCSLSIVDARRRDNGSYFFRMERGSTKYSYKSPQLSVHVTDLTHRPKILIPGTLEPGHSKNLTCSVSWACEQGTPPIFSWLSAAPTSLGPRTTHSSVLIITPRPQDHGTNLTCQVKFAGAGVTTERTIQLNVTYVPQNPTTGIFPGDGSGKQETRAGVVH
Description: BLI (ForteBio), CD33 on tip, Fab 100 nM. Here is the method: (§1) The affinities (KD) of the humanized antibodies for human CD33 were measured for each antibody by BioLayer Interferometry in a ForteBio assay according to standard techniques (Estep et al. (2013) MAbs 5(2): 270-8). […] The assay was carried out at room temperature.
(§2) The affinities of AB-H14 and its affinity-matured variants (Table 15) and AB-H63 and its affinity-matured variants (Table 16), for human CD33 were measured by Fortebio assay according to the method described in Example 1 above.
On the technique in general: Biolayer interferometry detects binding as a change in optical thickness at a sensor tip.
Molecule B1 returned a Kd of 0.299 nM and a koff of 0.0002 s⁻¹.

A further experiment has as its target T1, human CD33. Description: BLI (ForteBio), Fab; column looks row-shifted against KD. Here is the method:
as §1, §2
For the molecule B2, the koff turned out to be 0.0002 s⁻¹ and the on-rate constant (kon) was 723000 M⁻¹ s⁻¹.
For B3, the kon is 738000 M⁻¹ s⁻¹.
Regarding B4, the koff turned out to be 0.000546 s⁻¹ and the on-rate (kon) was 596000 M⁻¹ s⁻¹.
The corresponding values for B5 are 0.000581 s⁻¹ and 809000 M⁻¹ s⁻¹.
As for B6, the koff was determined as 0.00112 s⁻¹ and the kon was 602000 M⁻¹ s⁻¹.
B7: the koff was 0.00176 s⁻¹ and the kon amounted to 679000 M⁻¹ s⁻¹.
As to B8, the kon stood at 658000 M⁻¹ s⁻¹.
On to B9, for which the koff worked out at 0.000336 s⁻¹ and the on-rate constant (kon) is 721000 M⁻¹ s⁻¹.
With B10, the koff stood at 0.0002 s⁻¹ and the kon is 913000 M⁻¹ s⁻¹.
For B11, the koff amounted to 0.000322 s⁻¹ and the kon turned out to be 839000 M⁻¹ s⁻¹.
Consider B12, for which the koff is 0.000204 s⁻¹ and the kon was found to be 903000 M⁻¹ s⁻¹.
With B13, the koff was found to be 0.00155 s⁻¹ and the kon amounted to 776000 M⁻¹ s⁻¹.
B14: the koff is 0.000524 s⁻¹ and the association rate constant (kon) was determined as 847000 M⁻¹ s⁻¹.
